Results from PMC4802085 (2016).
One block for each binder: values may come before it.

How the values were obtained:
Gαi1 [1] = target: Gαi1 (Homo sapiens); assay: SPR
Gαi1 [2] = target: Gαi1 (Homo sapiens); assay: SPR; remark: listed apart in the source
[3] = target: T1, recombinant PGRMC1 of the surface plasmon resonance analyses (human, UniProt O00264 44-195); assay: SPR; haem-bound PGRMC1
[4] = target: T1, recombinant PGRMC1 of the surface …; assay: SPR; haem-bound PGRMC1; remark: listed apart in the source
HO1 [5] = target: T2, HO1 (Homo sapiens); assay: SPR
T2 chain: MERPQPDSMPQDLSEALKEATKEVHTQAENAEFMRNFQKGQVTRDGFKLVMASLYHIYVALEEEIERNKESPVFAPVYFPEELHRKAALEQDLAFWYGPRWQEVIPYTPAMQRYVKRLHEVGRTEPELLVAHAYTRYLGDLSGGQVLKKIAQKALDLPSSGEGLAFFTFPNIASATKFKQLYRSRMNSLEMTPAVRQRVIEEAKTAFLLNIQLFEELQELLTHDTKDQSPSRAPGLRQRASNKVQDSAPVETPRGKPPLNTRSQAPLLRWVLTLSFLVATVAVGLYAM

HO1 [6] = target: T2, HO1; assay: SPR

T1 sequence (O00264 44-195): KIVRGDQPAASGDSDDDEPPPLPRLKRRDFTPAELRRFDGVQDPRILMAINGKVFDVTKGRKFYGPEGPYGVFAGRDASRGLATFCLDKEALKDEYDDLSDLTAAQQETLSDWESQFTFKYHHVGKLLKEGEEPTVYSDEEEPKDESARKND
Chain of Gαi1 (Homo sapiens) (chain, as listed by the source): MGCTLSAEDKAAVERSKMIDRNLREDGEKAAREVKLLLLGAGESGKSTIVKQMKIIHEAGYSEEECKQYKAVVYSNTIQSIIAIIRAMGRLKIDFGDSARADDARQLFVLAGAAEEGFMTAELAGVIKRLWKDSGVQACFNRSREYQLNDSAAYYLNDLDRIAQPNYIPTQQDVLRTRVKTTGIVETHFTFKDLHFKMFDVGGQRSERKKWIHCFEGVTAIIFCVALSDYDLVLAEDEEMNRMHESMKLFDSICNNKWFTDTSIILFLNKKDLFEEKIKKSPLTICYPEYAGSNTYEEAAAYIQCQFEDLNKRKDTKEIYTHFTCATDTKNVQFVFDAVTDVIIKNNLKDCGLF

Kd (Gαi1 [1]): 600 nM | koff (Gαi1 [2]): 0.0003 s⁻¹
B1: Neuroglobin (protein)
chain: MERPEPELIRQSWRAVSRSPLEHGTVLFARLFALEPDLLPLFQYNCRQFSSPEDCLSSPEFLDHIRKVMLVIDAAVTNVEDLSSLEEYLASLGRKHRAVGVKLSSFSTVGESLLYMLEKCLGPAFTPATRAAWSQLYGAVVQAMSRGWDGE
modifications: haem b bound (oxidation state not stated); literature comparison value, construct not given; check residues are from general knowledge, not the paper nucleotide state not stated; literature comparison value, construct and species not given; check residues are from general knowledge, not the paper

koff [3]: 0.0012 s⁻¹ | Kd [4]: 5900 nM
B2: recombinant CYP51 (enzyme)
chain: MAAAAGMLLLGLLQAGGSVLGQAMEKVTGGNLLSMLLIACAFTLSLVYLIRLAAGHLVQLPAGVKSPPYIFSPIPFLGHAIAFGKSPIEFLENAYEKYGPVFSFTMVGKTFTYLLGSDAAALLFNSKNEDLNAEDVYSRLTTPVFGKGVAYDVPNPVFLEQKKMLKSGLNIAHFKQHVSIIEKETKEYFESWGESGEKNVFEALSELIILTASHCLHGKEIRSQLNEKVAQLYADLDGGFSHAAWLLPGWLPLPSFRRRDRAHREIKDIFYKAIQKRRQSQEKIDDILQTLLDATYKDGRPLTDDEVAGMLIGLLLAGQHTSSTTSAWMGFFLARDKTLQKKCYLEQKTVCGENLPPLTYDQLKDLNLLDRCIKETLRLRPPIMIMMRMARTPQTVAGYTIPPGHQVCVSPTVNQRLKDSWVERLDFNPDRYLQDNPASGEKFAYVPFGAGRHRCIGENFAYVQIKTIWSTMLRLYEFDLIDGYFPTVNYTTMIHTPENPVIRYKRRSK

Kd (HO1 [5]): 2400 nM | koff (HO1 [6]): 0.004 s⁻¹
B3: CPR (protein)
chain: MGDSHVDTSSTVSEAVAEEVSLFSMTDMILFSLIVGLLTYWFLFRKKKEEVPEFTKIQTLTSSVRESSFVEKMKKTGRNIIVFYGSQTGTAEEFANRLSKDAHRYGMRGMSADPEEYDLADLSSLPEIDNALVVFCMATYGEGDPTDNAQDFYDWLQETDVDLSGVKFAVFGLGNKTYEHFNAMGKYVDKRLEQLGAQRIFELGLGDDDGNLEEDFITWREQFWPAVCEHFGVEATGEESSIRQYELVVHTDIDAAKVYMGEMGRLKSYENQKPPFDAKNPFLAAVTTNRKLNQGTERHLMHLELDISDSKIRYESGDHVAVYPANDSALVNQLGKILGADLDVVMSLNNLDEESNKKHPFPCPTSYRTALTYYLDITNPPRTNVLYELAQYASEPSEQELLRKMASSSGEGKELYLSWVVEARRHILAILQDCPSLRPPIDHLCELLPRLQARYYSIASSSKVHPNSVHICAVVVEYETKAGRINKGVATNWLRAKEPAGENGGRALVPMFVRKSQFRLPFKATTPVIMVGPGTGVAPFIGFIQERAWLRQQGKEVGETLLYYGCRRSDEDYLYREELAQFHRDGALTQLNVAFSREQSHKVYVQHLLKQDREHLWKLIEGGAHIYVCGDARNMARDVQNTFYDIVAELGAMEHAQAVDYIKKLMTKGRYSLDVWS
modifications: FAD and FMN cofactors; literature comparison value, construct not given, full length and human species assumed haem state not stated; literature comparison value, the cited study may have used a C-terminally truncated soluble form
